Data as given in patent US20170096492A1, “DOSAGE AND ADMINISTRATION OF ANTI-IGF-1R, ANTI-ErbB3 BISPECIFIC ANTIBODIES, USES THEREOF AND METHODS OF TREATMENT [sequence]” (Merrimack Pharmaceuticals, Inc., priority 2014, published 2017).
Entries after “also recorded” stand apart in the source; their conditions may differ.

Assays:
[1] = tested on: patients with solid tumors; assay: Phase 1 dose escalation study, MM-141 monotherapy (Arm A): safety and disease response; format: in vivo, human
Excerpt: Adverse events that were reported with a frequency>15% included: vomiting (7/15), nausea (6/15), fatigue (4/15), abdominal pain (4/15), increased AP (4/15), dyspnea (4/15), diarrhea (3/15), anemia (3/15), increased AST (3/15), and rash (3/15). […] The safety, tolerability, PK and PD profiles support weekly and biweekly MM-141 dosing.

[2] = Phase 1 PK analysis of serum MM-141 (ELISA, non-compartmental); format: in vivo, human; conditions: range
Method: (§1) Serum for PK and PD analysis was prepared by drawing whole blood into red top tubes, clotting 30 minutes at 4-8° C. and spinning down in a refrigerated centrifuge. Serum was aliquotted and frozen immediately after centrifugation. PD analysis of total IGF-1 in serum was performed using Human IGF-I Quantikine® ELISA Kit (R&D Systems, Minneapolis, Minn.) according to the manufacturer's instructions. For the PK analysis, in brief, ELISA plates were plates were coated with IGF-1R (R&D Systems) in PBS and incubated overnight at 4° C. Plates were washed, blocked, and then samples and standards were added to plates and incubated for 2 hr at room temperature. Plates were washed and ErbB3-His was added for 1 hr at room temperature. Plates were washed and anti-His-HRP (Abeam, Cambridge, Mass.) was added for 1 hr at room temperature. Plates were developed using TMB and STOP solution and absorbance was read at 450 nm. PK parameters were analyzed using descriptive statistics including the median, mean and 95% confidence intervals around parameter estimates by dose level. All PK parameters included Cmax, Tmax, AUC (area under the concentration curve), clearance, volume of distribution at steady state (Vdss), and the terminal elimination half-life. Estimation of the PK parameters was performed using standard non-compartmental methods.

total IGF-1 in serum = assay: Phase 1 PD analysis of total IGF-1 in serum (Quantikine ELISA); format: in vivo, human
Method: as §1

CAKI-1 xenografts = assay: CAKI-1 xenograft PD, western blot; format: in vivo, mice
Method: For the PD study results shown in FIGS. 3A-B and FIGS. 5A-C, NOD/SCID female mice were inoculated with 12×10^6 CAKI-1 or 10×10^6 SK-ES-1 cells, respectively, in 1:1 Matrigel® suspension. […] Tumors were harvested 24 hours after the second dose of drug; lysates were generated and subjected to western blot analysis.

[3] = tested on: BxPC-3 pancreatic cancer cells; assay: CTG cell viability, paclitaxel with IGF-1 or HRG, three-dimensional cultures; format: cell-based, human
Method: (§2) The cell viability assay (FIGS. 7A-B and 8A-B) was carried out using a CellTiter-Glo® (CTG) assay (Promega), which determines the number of viable cells in a culture based on quantitation of the ATP present. In FIGS. 7A-B, BxPC-3 cells were grown in low serum alone or with exogenous IGF-1 or HRG added (0-50 nM). […] For the cell viability assays described in FIGS. 8(A-B), (FIG. 8A) BxPC-3 and (FIG. 8B) CFPAC-1 cells were cultured in low (2%) serum alone or with a combination of IGF-1 (50 nM) and HRG (10 nM).

[4] = tested on: BxPC-3 (KRAS wild type) pancreatic cancer cells; assay: CTG cell viability, gemcitabine or paclitaxel with IGF-1 and HRG, two-dimensional cultures; format: cell-based, human; conditions: IGF-1 50 nM and HRG 10 nM, 2% serum, MM-141 500 nM
Method: as §2

[5] = tested on: platinum-sensitive (Peol, PEA1 and OvCAR5) and platinum-resistant (Peo4 and PEA2) ovarian cancer cells; assay: CTG cell viability, paclitaxel with IGF-1 or HRG, three-dimensional ovarian cultures; format: cell-based; conditions: paclitaxel 10-100 nM, IGF-1 or HRG 0-50 nM, MM-141 1 μM, 2% serum
Method: The cell viability assay (FIGS. 17A-B) was carried out using a CellTiter-Glo® (CTG) assay (Promega), which determines the number of viable cells in a culture based on quantitation of the ATP present. In FIGS. 17A-B, Peol, Peo4, PEA1, PEA2 and OvCAR5 cells were grown in 2% serum alone or with exogenous IGF-1 or HRG added (0-50 nM).

[6] = tested on: ovarian cancer cell lines (PEA1, PEA2, OvCAR8); assay: Growth-factor-induced proliferation, 3D in vitro assays (CTG); format: cell-based
[7] = tested on: CFPAC-1 pancreatic cancer cells; assay: Total ErbB3 and total IGF-1R ELISA (Example 20); format: cell-based, human; conditions: 50 nM, relative to vehicle control
Method: CFPAC-1 pancreatic cancer cells were seeded at 65% confluence in 10% serum-containing medium and incubated in 96-well plates overnight. […] After treatment, cells were harvested and protein lysates generated. Changes in ErbB3 and IGF-1R levels across all treatments were evaluated by total ErbB3 or total IGF-1R ELISA, respectively.

[8] = tested on: CFPAC-1 pancreatic cancer cells; assay: CellTiter-Glo viability in three-dimensional nano-culture plates; format: cell-based, human
Method: CFPAC-1 pancreatic cancer cells were seeded in 10% serum-containing medium and incubated in 96-well three-dimensional nano-culture plates overnight. […] Cell viability was measured 96 hours post-treatment using CellTiter-Glo® (Promega).

[9] = tested on: CFPAC-1 pancreatic cancer cells; assay: Receptor ubiquitination, immunoprecipitation and immunoblotting; format: cell-based, human; conditions: 500 nM MM-141 20 minutes after 2 hours 1 μM epoxomicin
Excerpt: Cell lysates were immunoprecipitated (IP) with an IGF-1R (FIG. 33C) or ErbB3 (FIG. 33D) antibody, and then immunoblotted (IB) for IGF-1R, ErbB3, or ubiquitin protein (Ub) expression by western blotting.

[10] = patients with event / 15 patients dosed, all dose levels
[11] = single agent, MM-141 30 mpk i.p. or everolimus 10 mpk orally, 2 doses, tumors harvested 24 hours after second dose
[12] = MM-141 500 nM added to paclitaxel 50 nM

Substance: MM-141: polyvalent bispecific antibody P4-G1-M1.3, anti-IGF-1R and anti-ErbB3; heavy chain SEQ ID NO: 3, light chain SEQ ID NO: 4
- dose-limiting toxicities ([1]; monotherapy 6, 12, 20 mg/kg q7d or 40 mg/kg q14d, 15 patients): No dose-limiting toxicities were observed; also recorded: No DLTs were observed
- disease stabilization ([1]; patients with Ewing's Sarcoma (1) and parotid gland carcinoma (1)): Disease stabilization was observed
- adverse events reported with a frequency>15%: abdominal pain [1, 10]: 4/15
- adverse events reported with a frequency>15%: anemia [1, 10]: 3/15
- adverse events reported with a frequency>15%: diarrhea [1, 10]: 3/15
- adverse events reported with a frequency>15%: dyspnea [1, 10]: 4/15
- adverse events reported with a frequency>15%: fatigue [1, 10]: 4/15
- adverse events reported with a frequency>15%: increased AP [1, 10]: 4/15
- adverse events reported with a frequency>15%: increased AST [1, 10]: 3/15
- adverse events reported with a frequency>15%: nausea [1, 10]: 6/15
- adverse events reported with a frequency>15%: rash [1, 10]: 3/15
- adverse events reported with a frequency>15%: vomiting [1, 10]: 7/15
- Half-lives ([2]; 6 mg/kg q7d): 2.4 to 6.3 days
- Half-lives ([2]; 12 mg/kg q7d): 2.1 to 2.9 days
- Half-lives ([2]; 20 mg/kg q7d): 3.3 to 3.4 days
- Half-lives ([2]; 40 mg/kg q14d): 3.2 to 9.9 days
- increase in serum total IGF-1 (total IGF-1 in serum; 6 mg/kg cohort): approximately two-fold in 1/3 patient samples
- increase in serum total IGF-1 (total IGF-1 in serum; 12 mg/kg cohort): approximately two-fold in 1/3 patient samples
- increase in serum total IGF-1 (total IGF-1 in serum; 20 mg/kg, all patient samples): approximately a two-fold increase
- increase in serum total IGF-1 (total IGF-1 in serum; 40 mg/kg, all patient samples): approximately two to four fold increases
- everolimus-induced upregulation of IGF-1R and ErbB2 (resistance mechanism) (CAKI-1 xenografts; MM-141 30 mpk i.p. co-administered with everolimus 10 mpk orally): resistance mechanism was inhibited
- total ErbB2 (CAKI-1 xenografts; [11]): down regulation
- total IGF-1R (CAKI-1 xenografts; [11]): down regulation
- sensitivity to cytotoxic properties of paclitaxel in a high IGF-1 setting [3, 12]: re-sensitize cells
- sensitivity to cytotoxic properties of paclitaxel in the presence of high HRG [3, 12]: re-sensitize cells
- resistance to cytotoxic effect of paclitaxel caused by IGF-1 or heregulin ([3]; paclitaxel 50 nM, IGF-1 or HRG 0-50 nM, MM-141 500 nM): resistance was reversed
- resistance to cytotoxic effect of gemcitabine and paclitaxel caused by combination of IGF-1 and HRG [4]: resistance was reversed
- resistance to cytotoxic effect of paclitaxel caused by IGF-1 or heregulin [5]: resistance was reversed
- IGF-1 and HRG growth-factor-induced proliferation [6]: blocks
- total ErbB3 protein level [7]: potently down-regulates
- total IGF-1R protein level [7]: potently down-regulates
- proliferation compared to cells incubated with ligands alone ([8]; MM-141 1000 nM in addition to HRG 10 nM and IGF-1 50 nM, with gemcitabine or paclitaxel): reduced proliferation
- sensitivity to gemcitabine in cells stimulated with HRG and IGF-1 ([8]; gemcitabine 2 nM, HRG 10 nM, IGF-1 50 nM, MM-141 1000 nM, 96 hours): restores sensitivity
- sensitivity to paclitaxel in cells stimulated with HRG and IGF-1 ([8]; paclitaxel 6 nM, HRG 10 nM, IGF-1 50 nM, MM-141 1000 nM, 96 hours): restores sensitivity
- IGF-1R and ErbB3 receptor ubiquitination [9]: induction of ubiquitination; also recorded: enhanced receptor ubiquitination
